Earlier results, collected in article PMC3037977.
Read-outs that look alike come from different tables or passages of the source.

Legend:
[1] = molecular target: importin β (Homo sapiens) (UniProt Q14974)
[2] = molecular target: importin β (Homo sapiens) (UniProt Q14974); remark: listed apart in the source

importin β (Homo sapiens), sequence (Q14974 whole entry): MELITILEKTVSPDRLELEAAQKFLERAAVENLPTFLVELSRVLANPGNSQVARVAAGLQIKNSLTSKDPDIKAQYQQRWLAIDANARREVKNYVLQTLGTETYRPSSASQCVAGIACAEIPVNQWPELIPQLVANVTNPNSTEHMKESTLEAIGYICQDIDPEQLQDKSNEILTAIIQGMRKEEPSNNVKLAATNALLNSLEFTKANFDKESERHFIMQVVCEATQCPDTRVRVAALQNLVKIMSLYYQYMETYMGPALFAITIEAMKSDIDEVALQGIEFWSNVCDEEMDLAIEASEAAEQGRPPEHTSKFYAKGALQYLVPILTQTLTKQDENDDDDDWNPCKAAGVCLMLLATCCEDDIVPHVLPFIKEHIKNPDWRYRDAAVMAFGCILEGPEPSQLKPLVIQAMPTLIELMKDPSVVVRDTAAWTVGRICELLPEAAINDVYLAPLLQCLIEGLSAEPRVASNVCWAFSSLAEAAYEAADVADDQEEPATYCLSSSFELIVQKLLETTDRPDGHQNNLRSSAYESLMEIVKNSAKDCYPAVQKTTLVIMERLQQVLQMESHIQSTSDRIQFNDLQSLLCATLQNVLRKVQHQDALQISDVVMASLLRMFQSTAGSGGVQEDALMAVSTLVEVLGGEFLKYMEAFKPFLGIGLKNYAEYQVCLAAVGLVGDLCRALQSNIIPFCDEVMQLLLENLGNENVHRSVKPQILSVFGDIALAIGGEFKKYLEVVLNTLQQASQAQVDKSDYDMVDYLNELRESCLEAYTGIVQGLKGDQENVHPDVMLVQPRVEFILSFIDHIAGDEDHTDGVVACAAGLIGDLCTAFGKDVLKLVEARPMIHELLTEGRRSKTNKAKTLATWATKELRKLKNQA
snurportin IBB domain, sequence (O95149 8-76): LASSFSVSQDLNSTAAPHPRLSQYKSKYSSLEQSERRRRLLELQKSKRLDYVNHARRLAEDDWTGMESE

Row | Substance | Kd [1] [nM] | Kd [2] [nM]
1 | snurportin IBB domain (from UniProt O95149) | 2 | 
2 | importin α1 IBB domain (from UniProt P52292) |  | 2
